{
  "source": "patent US20240043568A1",
  "about": "(KEYMED BIOSCIENCES, published 2024)",
  "binders": {"B1": {"name": "49G8 (antibody, V domains shown)", "VH": "QVQLQQSGAELVRPGASVKLSCKALGYTFADYEIHWVKQTPVHGLEWIGAIHPGSGGTAYNQTFEGKATLTADKSSTTAYMELSSLTSEDSAVYYCTRYYSFAYWGQGTLVTVSA", "VL": "DVVMTQTPLSLPVSLGDQASISCRSSQSIVHSNGNTYLEWYLQKPGQSPKLLIYKVSNRFSGVPDRFSGSGSGTDFTLKISRVEAEDLGVYFCLQVTHVPLTFGAGTKLELK", "notes": "Chimeric human IgG1; also called 49G8 chimeric antibody; Mab 49G8"}},
  "key": {"[1]": {"target": "T1, recombinant human GPC3 protein (human, UniProt P51654 25-563)", "T1 construct": "also called human GPC3 full-length protein; recombinant GPC3 protein", "assay": "ELISA, coated antigen 1 µg/ml", "description": "(§1) The high-affinity positive clone 49G8 was selected to detect binding activity to recombinant human, cynomolgus monkey, mouse GPC3 full-length proteins, and recombinant human GPC3 extracellular domain membrane-proximal proteins. 1 μg/ml of the above-mentioned protein was coated overnight at 4° C. After blocking, 49G8 chimeric antibody (initial concentration 200 nM, 3-fold gradient dilution, a total of 12 concentrations) was added and reacted for 1 hour at room temperature. The secondary antibody HPR-labeled goat anti-human IgG Fc was added. After being developed by the TMB solution, the reaction was stopped with concentrated sulfuric acid, and the absorbance was read at […]. The 49G8 antibody can bind to the full-length human and cynomolgus monkey GPC3 proteins and the membrane-proximal end of the extracellular region of human GPC3 with a slightly higher affinity than the control antibody and a weak affinity to mouse GPC3 protein (Table 3)."}, "[2]": {"target": "T2, recombinant cynomolgus monkey GPC3 full-length protein (cynomolgus monkey, UniProt A0A2K5VK50 24-558)", "assay": "ELISA, coated antigen 1 µg/ml", "description": "as §1"}, "[3]": {"target": "T3, recombinant GST-human GPC3 stem protein (human)", "T3 construct": "also called recombinant human GPC3 extracellular domain membrane-proximal protein", "T3 sequence (chain, as listed by the source limits assumed)": "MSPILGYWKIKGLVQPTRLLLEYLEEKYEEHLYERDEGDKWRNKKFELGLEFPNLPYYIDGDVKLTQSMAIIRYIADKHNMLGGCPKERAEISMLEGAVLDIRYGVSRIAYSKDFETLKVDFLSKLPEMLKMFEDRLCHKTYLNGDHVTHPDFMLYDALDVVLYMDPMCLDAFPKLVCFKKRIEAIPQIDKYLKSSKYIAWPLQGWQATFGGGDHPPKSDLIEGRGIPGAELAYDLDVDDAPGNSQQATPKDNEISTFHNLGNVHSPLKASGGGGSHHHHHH", "assay": "ELISA, coated antigen 1 µg/ml", "description": "as §1"}, "[4]": {"target": "T4, human GPC3 on cells (human, UniProt P51654 25-563)", "T4 construct": "whole, on cells; One molecule is used for both CHO-hGPC3 transfectants and GPC3+ HepG2 cells; The assay field names the cell; also called CHO-hGPC3 (clone 2B10); CHO-human GPC3", "assay": "flow cytometry, CHO-human GPC3 cells", "description": "The binding of the antibodies to human GPC3 stably-transfected cells was detected by FACS. CHO-human GPC3 stably-transfected cells prepared in Example 1 in the logarithmic growth phase were adjusted to 5×10⁵ cells/ml with 4% calf serum (Hyclone, SH30626.06). 100 μl/well of cell suspension was added to a 96-well U-plate, and centrifuged at 300 g for 5 min. The supernatant was discarded. 100 μL of gradient diluted antibodies (initial concentration 200 nM, 3-fold dilution, 12 gradients) was added to each well and incubated at 4° C. for 45 min. The secondary antibody Alexa Fluro647 labeled goat anti-human IgG Fc (1:300 dilution) was added at 50 μL/well, incubated on ice for 45 minutes, and detected by flow cytometry."}, "[5]": {"target": "T1, recombinant human GPC3 protein", "assay": "BLI (Octet), antibody on Protein A probe", "description": "(§2) Using BLI technology (Octet), the antibody to be tested was captured on the Protein A probe. The binding capacity with human GPC3 protein (10 μg/ml as the initial concentration, 2-fold gradient, a total of 5 concentration points) was detected. The affinity constant KD was obtained according to the association and dissociation rates."}, "[6]": {"target": "T1, recombinant human GPC3 protein", "assay": "BLI (Octet), antibody on Protein A probe", "description": "as §2, with “rates. The 49G8 humanized antibody binds to the recombinant GPC3 protein with high affinity. The affinity data is seen in Table 6.” for “rates.”", "remark": "listed apart in the source"}, "[7]": {"target": "T1, recombinant human GPC3 protein", "assay": "ELISA on coated recombinant human GPC3 protein, OD450 [panel Recombinant human GPC3 protein]"}, "[8]": {"target": "T2, recombinant cynomolgus monkey GPC3 …", "assay": "ELISA on coated recombinant cynomolgus monkey GPC3 protein, OD450 [panel Recombinant cynomolgus monkey GPC3 protein]"}},
  "note": "Like-named read-outs stand apart in the source and are kept apart here.",
  "data": [
    {"binder": "B1", "values": [
      {"measurement": "EC50", "setting": "[1]", "result": 0.072, "unit": "nM"},
      {"measurement": "EC50", "setting": "[2]", "result": 0.12, "unit": "nM"},
      {"measurement": "EC50", "setting": "[3]", "result": 0.074, "unit": "nM"},
      {"measurement": "EC50", "setting": "[4]", "result": 1.18, "unit": "nM"},
      {"measurement": "Kd", "setting": "[5]", "result": 3.32, "unit": "nM"},
      {"measurement": "koff", "setting": "[5]", "result": 0.000231, "unit": "s⁻¹"},
      {"measurement": "kon", "setting": "[5]", "result": 69400, "unit": "M⁻¹ s⁻¹"},
      {"measurement": "Kd", "setting": "[6]", "result": 1.17, "unit": "nM"},
      {"measurement": "koff", "setting": "[6]", "result": "9.35e-05", "unit": "s⁻¹"},
      {"measurement": "kon", "setting": "[6]", "result": 79700, "unit": "M⁻¹ s⁻¹"},
      {"measurement": "EC50 (read off the curve)", "setting": "[7]", "result": "~0.03", "unit": "nM"},
      {"measurement": "EC50 (read off the curve)", "setting": "[8]", "result": "~0.03", "unit": "nM"}
    ]}
  ]
}
